The text below walks through data of patent US20200325231A1 (CURATORS OF THE UNIVERSITY OF MISSOURI, published 2020).

For this assay, the target named is T1, Programmed Cell Death Ligand 1 (PD-L1) (human, UniProt Q9NZQ7 19-290).
T1 construct: whole, on cells; Endogenous PD-L1 on cells or in fixed tissue sections; No recombinant PD-L1 was used; also called CD274
Description: IHC on FFPE placenta, biotinylated peptide, streptavidin-HRP/DAB. From the text:
To detect PD-L1 in FFPE tissues, manual IHC techniques were employed with a biotin-conjugated version of peptide RK-10-Cy5 and compared with Ventana PD-L1 (SP263) Rabbit monoclonal Primary Antibody stained on a Roche Benchmark Ultra autostainer. Seven PD-L1 expressing NSCLC patient tissues were obtained from the MU OneHealth tissue bank and de-identified according to IRB protocols. Paraffin-embedded patient tissue slides were baked overnight, then de-waxed and rehydrated according to standard protocols. Tissue sections were then subjected to antigen retrieval in EDTA at 95° C. for 20 minutes in EDTA […]. The solution is then cooled for an additional 20 minutes on the bench top prior to buffer rinse. Tissues were then incubated with 15 biotinylated peptide for 2 hours in a humid chamber at RT. After 2 hours, slides were washed with buffer and treated with PIERCE™ High Sensitivity Streptavidin-HRP (1:200 dilution) (Sigma) for 30 minutes at RT in a humid chamber. Once this was complete, slides were again washed in buffer then treated with DAB (3,3′-Diaminobenzidine; Sigma) for 10 minutes. Slides were again washed in buffer, then dehydrated using graded alcohol and xylene and counterstained with hematoxylin. Slides were then imaged using bright-field microscopy on a Leica DM5500. […]

Ends that are not written are not given here. * marks the point of attachment. Biotin = O=C1N[C@H]2[C@H](CS[C@H]2CCCCC(=O)*)N1

T1 sequence (Q9NZQ7 19-290): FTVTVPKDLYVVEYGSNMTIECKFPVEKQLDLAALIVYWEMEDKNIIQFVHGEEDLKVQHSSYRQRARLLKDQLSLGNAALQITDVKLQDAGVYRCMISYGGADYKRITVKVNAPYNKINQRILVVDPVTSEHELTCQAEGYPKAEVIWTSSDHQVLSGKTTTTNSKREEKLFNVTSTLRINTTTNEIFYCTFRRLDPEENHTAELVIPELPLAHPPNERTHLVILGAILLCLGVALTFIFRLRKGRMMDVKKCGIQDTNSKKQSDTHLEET

With Biotin-GSGSGSFVLNWYRMSPSNQTDKLAA (also called Mock peptide RK-11-Biotin) [RK-11-Biotin (biotinylated mock peptide)], the binding result is “binds”.
